Substitutions are numbered along the chain they refer to.
B1: clone GS011 (scFv, V domains shown)
VH: EVQLLESGGGLVQPGGSLRLSCAASGFTFSNYAMSWVRQAPGKGLEWVSGISPGGSSIYYADSVKGRFTISRDNSKNTLYLQMNSLRAEDTAVYYCARYAVYFLRSHGSYDYGMDVWGQGTLVTVSS
VL: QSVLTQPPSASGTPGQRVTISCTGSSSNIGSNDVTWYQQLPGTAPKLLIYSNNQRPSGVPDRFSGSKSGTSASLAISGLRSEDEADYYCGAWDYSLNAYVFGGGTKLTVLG
notes: scFv library clone tested as culture supernatant
B2: clone GS009 (scFv, V domains shown)
VH: EVQLLESGGGLVQPGGSLRLSCAASGFTFSNYSMSWVRLAPGKGLEWVSVISPSGGNTYYADSVKGRFTISRDNSKNTLYLQMNSLRAEHTAVYYCARYRVKQMLNQRSYSNAMDVWGQGTLVTVSS
VL: QSVLTQPPSASGTPGQRVTISCTGSSSNIGNNYVSWYQQLPGTAPKLLIYDDSQRPSGVPDRFSGSKSGTSASLAISGLRSEDEADYYCGSWDASLSGYVFGGGTKLTVLG
notes: as for B1
B3: clone GS017 (scFv, V domains shown)
VH: EVQLLESGGGLVQPGGSLRLSCAASGFTFSGYAMSWVRQAPGKGLEWVSGISPGDGSTYYADSVKGRFTISRDNSKNTLYLQMNSLRAEDTAVYYCARVARMCQGWRCSYADGMDVWGQGTLVTVSS
VL: B2 VL with Y33S, S35Y, D51S, Q54H, S91T, A94S
notes: as for B1
B4: clone GS008 (scFv, V domains shown)
VH: EVQLLESGGGLVQPGGSLRLSCAASGFTFSNYAMSWVRQAPGKGLEWVSVISPDNGSTYYADSVKGRFTISRDNSKNTLYLQMNSLRAEDTAVYYCARARVHCRRDQCYSYGMDVWGQGTLVTVSS
VL: B2 VL with N31S, Y33N, S35T, D51A, D52N, S91A, A94S, S97N
notes: as for B1
B5: clone GS001 (scFv, V domains shown)
VH: EVQLLESGGGLVQPGGSLRLSCAASGFTFSSYSMSWVRQAPGKGLEWVSGISPSGGNKYYADSVKGRFTISRDNSKNTLYLQMNSLRAEDTAVYYCARALLGCKSAYCYYAMDVWGQGTLVTVSS
VL: B2 VL with N31S, Y33A, S35N, D51A, Q54K, A94S
notes: as for B1
B6: clone GS005 (scFv, V domains shown)
VH: EVQLLESGGGLVQPGGSLRLSCAASGFTFSNYAMSWVRQAPGKGLEWVSVISPDSSSKYYADSVKGRFTISRDNSKNTLYLQMNSLRAEDTAVYYCARAAVRRYGPSPYYYYAMDVWGQGTLVTVSS
VL: B2 VL with S35T, D51A, Q54H, G90A, S91T, A94Y
notes: as for B1
B7: clone GS007 (scFv, V domains shown)
VH: EVQLLESGGGLVQPGGSLRLSCAASGFTFSNYSMSWVRQAPGKGLEWVSVISHDGRSKYYADSVKGRFAISRDNSKNTLYLQMNSLRAEDTAVYYCAKFRVWKRTNAHSYANAMDVWGQGTLVTVSS
VL: B2 VL with V18A, N31S, Y33S, D51A, D52N, Q54N, S91T, G98A
notes: as for B1
B8: clone GS013 (scFv, V domains shown)
VH: EVQLLESGGGLVQPGGSLRLSCAASGFTFSNYAMSWVRQAPGKGLEWVSSISSGGGSTYYADSVKGRFTISRDNSKNTLYLQMNSLRAEDTAVYYCARKKSQFDYWGQGTLVTVSS
VL: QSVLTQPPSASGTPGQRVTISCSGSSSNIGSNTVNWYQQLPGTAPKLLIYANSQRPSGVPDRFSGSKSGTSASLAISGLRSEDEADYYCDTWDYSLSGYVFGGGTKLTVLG
notes: as for B1
B9: clone GX119 (scFv, V domains shown)
VH: EVQLVESGGGVVQPGRSLRLSCAASGFTFSSYGMHWVRQAPGKGLEWVAVIWYDGSNKYYADSVKGRFTISRDNSKNTLYLQMNSLRAEDTAVYYCARDRSWNYYGMDVWGQGTTVTVSS
VL: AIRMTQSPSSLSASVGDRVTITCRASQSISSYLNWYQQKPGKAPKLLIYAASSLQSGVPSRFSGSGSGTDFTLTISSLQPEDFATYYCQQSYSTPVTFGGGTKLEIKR
notes: as for B1
B10: clone GX099 (scFv, V domains shown)
VH: EVQLVESGAEVKKPGASVKVSCKASGYTFTSYYMHWVRQAPGQGLEWMGIINPSGGSTSYAQKFQGRVTMTRDTSTSTVYMELSSLRSEDTAVYYCARYSSSPAKIDYWGQGTLVTVSS
VL: QSVLTQPPSVSAAPGEKVIISCSGSSSNIGKYYVSWYQQLPGTAPKLLIYDNNKRPSGIPDRFSGSKSGTSATLGISGLQTGDEADYYCGTWDSSLNLVFGTGTKVTVLG
notes: as for B1
B11: clone GX207 (scFv, V domains shown)
VH: EVQLVQSGAEVKKPGASVKVSCKASGYTFTSYGISWVRQAPGQGLEWMGWISAYNGNTNYAQKLQGRVTMTTDTSTSTAYMELRSLRSDDTAVYYCAREGIAAAGYYYGMDVWGQGTTVTVSS
VL: QSALTQPPSVSGSPGQSVTISCTGTSSDVGGYNRVSWYQQPPGTAPKLMIYEVSNRPSGVPDRFSGSKSGNTASLTISGLQAEDEADYYCSSYTSSTTYVFGTGTKVTVLG
notes: as for B1
B12: clone GX234 (scFv, V domains shown)
VH: QVQLVQSGAEVKKPGASVKVSCKASGYTFTSYGISWVRQAPGQGLEWMGWISAYNGNTNYAQKLQGRVTMTTDTSTSTAYMELRSLRSDDTAVYYCARVGLGDFWSGDYYYYYYGMDVWGQGTTVTVSS
VL: SSELTQDPAVSVALGQTVRITCQGDSLRSSYASWYHQKPGQAPVLVMYGKNNRPSGIPDRFSGSSSGNTASLTITGAQAEDEADYYCHSRDSTGSHPNWVFGGGTKLTVLG
notes: as for B1
B13: clone GX206 (scFv, V domains shown)
VH: QLQLQESGPGLVKPSETLSLTCTVSGGSISSSSYYWGWIRQPPGKGLEWIGSIYYSGSTYYNPSLKSRVTISVDTSKNQFSLKLSSVTAADTAVYYCARLGDYGGNGYYFDYWGQGTLVTVSS
VL: QSVLTQPPSVSAASGQKVTVSCSGSSSNIGKNGVSWHQQLPGTAPKLLIYENNRRPSEIPDRFSGSKSGTSATLAITGLQTGDEADYYCGTWDSSLNAGVFGTGTKVTVLG
notes: as for B1
B14: clone GX253 (scFv, V domains shown)
VH: EVQLVESGGGLVKPGGSLRLSCAASGFTFSDYYMSWIRQAPGKGLEWVSYISSSGTTIYYADSVKGRFTISRDNAKKSLYLQMNSLRAEDTAVYYCARVRDSSGFWGRGTLVTVSS
VL: QSVLTQPPSVSAAPGQKVTISCSGSSSNIGNNYVSWYQQLPGTAPKLLIYDNNKRPSGIPDRFSGSKSGTSATLGITGLQTGDEADYYCGTWDSSLSAWVVGGGTKLTVLG
notes: as for B1
B15: clone GX118 (scFv, V domains shown)
VH: QLQLQESGPGLVKPSETLSLTCTVSGGSISSSSYYWGWIRQPPGKGLEWIGSIYYSGSTYYNPSLKSRVTISVDTSKNQFSLKLSSVTAADTAVYYCARLRSFADNYVWGSYASYYFDYWGRGTLVTVSS
VL: B14 VL with L4V, K17R, Y33F, Y37H, S94N, S97G, A98T, W99G, V101F
notes: as for B1
B16: clone GX248 (scFv, V domains shown)
VH: QMQLVQSGAEVKKPGASVKVSCKASGGTFSSYAISWVRQAPGQGLEWMGGIIPIFGTANYAQKFQGRVTITADESTSTAYMELSSLRSEDTAVYYCARVRGTGPRGGTFDYWGQGTLVTVSS
VL: B14 VL with V101F
notes: as for B1
B17: clone GX090 (scFv, V domains shown)
VH: QVQLVQSGAEVKKPGASVKVSCKASGYTFTSYGISWVRQAPGQGLEWMGWISAYNGNTNYAQKLQGRVTMTTDTSTSTAYMELRSLRSDDTAVYYCARGSSFSGFDPWGQGTLVTVSS
VL: QSVLTQPPSLSAAPGQKVTISCSGSSSNIGKNHVSWYQQFPGTAPKFLIYDNHRRPSGIPDRFSGSKSGTSATLDITGLQTGDEATYYCGTWDSSLSAVVFGGGTKLTVLG
notes: as for B1
B18: clone GX225 (scFv, V domains shown)
VH: QVQLVQSGAEVKKPGASVKVSCKASGYTFTSYYMHWVRQAPGQGLEWMGIINPSGGSTSYAQKFQGRVTMTRDTSTSTVYMELSSLRSEDTAVYYCARESGPSGGMDVWGQGTTVTVSS
VL: SYELTQPPSVSVSPGQTARITCSGDALPKQYAYWYQQKPGQAPVLVIYKDSERPSGIPERFSGSSSGTTVTLTISGVQAEDEADYYCSSYTSSSTRVVFGGGTKLTVLG
notes: as for B1
B19: clone GN337 (scFv, V domains shown)
VH: EVQLVESGPGLVKPSQTLSLTCTVSGGSVSSGGYHWNWIRQHPGKGLEWIGYIFNSGNTDYNPSLRSRLTISQDTSKNQFSLKLSSVTAADTAVYYCARHRSRLLRWFDYWGQGTMVTVSS
VL: DVVLTQSPSSLSAFVGDRVTITCQASQDIRKYLNWFQQKPGKAPKLLIYDASTLETGVSSRFSGSGSGTHFNLVISSLEPEDSATYYCQQHDFVPRTFGQGTKLEIKR
notes: as for B1

Target: T1, GPC3 on the surface of hepatic cancer cell lines (SK-Hep1-GPC3 transfectant, HepG2, Huh7, Hep3B, SNU398) (human, UniProt P51654 25-554)
T1 construct: Species is not restated for the cells (hepatic cancer cell lines, or SK-Hep1 transfected with pCMV/GPC3); also called glypican 3
Experiment: FACS, HepG2 cells, 1 ug antibody; upper right panel (Synthetic library)

In order of falling “Mean, FL2-H” value:
1. B3  12.2
2. B7  11.3
3. B6  11
4. B4  8.85
5. B5  8.76
6. B2  8.12
7. B1  6.5
8. B8  6.07

Target: T1, GPC3 on the surface of hepatic cancer …
Experiment: FACS, SK-Hep1-GPC3 cells, 1 ug antibody; lower right panel
Procedure: (§1) After detaching SK-Hep1-GPC3 cells by adding a TrypLE Express solution thereto, the detached SK-Hep1-GPC3 cells were put into a 50 mL tube and centrifuged at room temperature and 2000 rpm for 3 minutes to remove a culture medium, followed by washing with PBS once. The resultant was suspended using a FACS buffer, transferred to a round bottom tube, and centrifuged at room temperature and 2000 rpm for 3 minutes. A supernatant was removed, and the resultant was suitably dissolved using the FACS buffer so as to have a concentration of 4×10⁵ ea/mL. Then, a candidate antibody (1 μg) was added thereto at 4° C., and in an […] control group, a human IgG (1m, Sigma) was added instead of the candidate antibody. After 1 hour, the resultant was washed with the FACS buffer two times, a goat anti-human IgG antibody and FITC conjugated were added thereto at an amount of 1 μL per sample and bound thereto at 4° C. for 30 minutes. After collecting cells by centrifugation at 2000 rpm for 3 minutes, the cells were re-suspended by adding a fixation buffer (500 μL), and measured using a FACS calibur (FIG. 5).

In order of falling “Mean, FL2-H” value:
1. B12  62.9
2. B10  40.1
3. B18  37.8
4. B13  14.9
5. B14  13.7
6. B9  13.3
7. B16  13.3
8. B17  10.2
9. B11  9.91
10. B15  5.95

Target: T1, GPC3 on the surface of hepatic cancer …
Experiment: FACS, HepG2 cells, 1 ug antibody; lower left panel (Human naive library)

B19 was tested, and the “Mean, FL2-H” value was 30.8.

Target: T1, GPC3 on the surface of hepatic cancer …
Experiment: FACS, SK-Hep1-GPC3 #9 cells, 1 ug antibody; upper right panel
Procedure: as §1

In order of falling “Mean, FL2-H” value:
1. B3  27.5
2. B1  22.9
3. B2  12.3
4. B8  7.43
5. B5  5.32
6. B6  4.98
7. B4  4.89
8. B7  3.94

Target: T1, GPC3 on the surface of hepatic cancer …
Experiment: FACS, HepG2 cells, 1 ug antibody; lower right panel

In order of falling “Mean, FL2-H” value:
1. B10  13.2
2. B12  12.6
3. B18  9.81
4. B14  6.12
5. B16  5.71
6. B9  5.62
7. B13  5.08
8. B11  5
9. B17  3.49

Target: T1, GPC3 on the surface of hepatic cancer …
Experiment: FACS, SK-Hep1-GPC3 #9 cells, 1 ug antibody; lower left panel
Procedure: as §1

With B19 the “Mean, FL2-H” value was 3.81.

Reference: patent publication US20180346592A1 (MOGAM INSTITUTE FOR BIOMEDICAL RESEARCH, published 2018)
